Data: US20230021388A1 (VELOSBIO, published 2023)
Substitutions are numbered along the chain they refer to. Numbers in names are those of the source. One block for each binder: values may come before it.

Legend:
[1] = target: T1, recombinant human ROR1 extracellular domain (human, UniProt Q01973 30-406); assay: capture filter lift
T1 construct: biotinylated for the filter lifts; also called huROR1-ECD; human ROR1-ECD
Experimental: Subsequently, the filter was applied to the agar plates as described above. For detection of antigen binding, the filter was rinsed briefly in PBS, and transferred to biotinylated huROR1-ECD (ACROBiosystems, cat. #RO1-H522y) in 5% M-P.
Filters were incubated with 2.3 nM biotinylated ROR1 diluted in 5% M-P for 2 h at 25° C. with constant agitation, and washed 5 times, 2 minutes each wash, with constant agitation in PBS-T. Alternatively, filters were washed more rapidly using a squirt bottle and sintered glass funnel for vacuum filtration. The filters were transferred to 10 mL of High Sensitivity Neutravidin, HRP conjugate (Thermo Scientific, cat. #31030) diluted 5000-fold in 1% BSA in PBS and incubated for 1 h at 25° C. The filters were then washed 5 times in PBS-T and were developed with 1-Step Ultra TMB-Blotting.
All libraries were initially screened by capture lift to identify variants with improved binding. The capture lift assay, described in Example 1, enables the filter lift assay to discern variants that bind antigen more strongly based on the staining intensity. In order to determine the optimal concentration of antigen to use for screening, biotinylated huROR1-ECD was titrated on a capture lift of Ab1 Fab. Binding to Ab1 was clearly visible at antigen concentrations ≥23 nM and the signal was diminished at lower huROR1 concentrations. […] In addition, for more stringent screening, filters were probed with lower concentrations of antigen and/or development of the filter was terminated earlier, before the Ab1 staining was visible. […] In this example, approximately 250 library variants were plated. Twelve variants clearly bound huROR1 (FIG. 4, numbered).

[2] = target: T1, recombinant human ROR1 extracellular …; assay: ELISA, soluble Fab on coated huROR1-ECD

T1 sequence (Q01973 30-406 limits assumed): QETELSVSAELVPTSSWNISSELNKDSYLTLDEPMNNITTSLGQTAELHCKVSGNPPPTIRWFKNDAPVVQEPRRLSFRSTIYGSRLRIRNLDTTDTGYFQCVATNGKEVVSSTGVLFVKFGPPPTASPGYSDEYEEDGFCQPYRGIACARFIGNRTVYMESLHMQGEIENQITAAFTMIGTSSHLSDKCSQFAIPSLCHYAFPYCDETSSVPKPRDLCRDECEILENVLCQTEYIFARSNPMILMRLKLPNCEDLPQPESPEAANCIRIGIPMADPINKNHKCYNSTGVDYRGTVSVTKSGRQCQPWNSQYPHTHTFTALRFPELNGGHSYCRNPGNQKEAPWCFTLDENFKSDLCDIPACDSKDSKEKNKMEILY

B1: Ab1 Fab variant H1 A30I (Fab, V domains shown)
VH: QVQLQESGPGLVKPSQTLSLTCTVSGYIFTAYNIHWVRQAPGQGLEWMGSFDPYDGGSSYNQKFKDRLTISKDTSKNQVVLTMTNMDPVDTATYYCARGWYYFDYWGHGTLVTVSS
VL: DIVMTQTPLSLPVTPGEPASISCRASKSISKYLAWYQQKPGQAPRLLIYSGSTLQSGIPPRFSGSGYGTDFTLTINNIESEDAAYYFCQQHDESPYTFGEGTKVEIK
notes: Fab
- binding result [1]: binds

B2: Ab1 Fab variant H2 S57A (Fab, V domains shown)
VH: B1 VH with I28A, S50A
VL: B1 VL
- Kd [2]: 3.6 nM

B3: Ab1 Fab variant H1 N40R (Fab, V domains shown)
VH: B1 VH with I28A, N33R
VL: B1 VL
- Kd [2]: 43 nM

B4: Ab1 Fab variant H1 I41V (Fab, V domains shown)
VH: B1 VH with I28A, I34V
VL: B1 VL
- Kd [2]: 3.5 nM

B5: Ab1 Fab variant H1 Y29S (Fab, V domains shown)
VH: B1 VH with Y27S, I28A
VL: B1 VL
notes: Fab
- binding result [1]: binds

B6: Ab1 Fab variant H3 Y111A (Fab, V domains shown)
VH: B1 VH with I28A, Y101A
VL: B1 VL
notes: Fab
- binding result [1]: binds

B7: Ab1 Fab variant H2 G67S (Fab, V domains shown)
VH: B1 VH with I28A, G57S
VL: B1 VL
notes: Fab
- binding result [1]: binds

B8: Ab1 Fab variant H1 Y29K (Fab, V domains shown)
VH: B1 VH with Y27K, I28A
VL: B1 VL
notes: Fab
- binding result [1]: binds

B9: Ab1 Fab variant H2 F58P (Fab, V domains shown)
VH: B1 VH with I28A, F51P
VL: B1 VL
notes: Fab
- binding result [1]: binds

B10: Ab1 Fab variant H3 Y138Q (Fab, V domains shown)
VH: B1 VH with I28A, Y105Q
VL: B1 VL
notes: Fab
- binding result [1]: binds

B11: Ab1 Fab variant L2 T69R (Fab, V domains shown)
VH: B1 VH with I28A
VL: B1 VL with T53R
notes: Fab; also called SGSRLQS
- Kd [2]: 2.1 nM

B12: Ab1 Fab variant H2 K75G (Fab, V domains shown)
VH: B1 VH with I28A, K65G
VL: B1 VL
notes: Fab
- binding result [1]: binds

B13: Ab1 Fab variant H2 K73S (Fab, V domains shown)
VH: B1 VH with I28A, K63S
VL: B1 VL
notes: Fab
- binding result [1]: binds

B14: Ab1 Fab variant H1 A30R (Fab, V domains shown)
VH: B1 VH with I28R
VL: B1 VL
notes: Fab
- binding result [1]: binds

B15: Ab1 Fab variant H1 G27R (Fab, V domains shown)
VH: B1 VH with G26R, I28A
VL: B1 VL
notes: Fab
- binding result [1]: binds

B16: Ab1 Fab variant H1 T32D (Fab, V domains shown)
VH: B1 VH with I28A, T30D
VL: B1 VL
notes: Fab
- binding result [1]: binds

B25: Ab1 Fab variant L2 S68R (Fab, V domains shown)
VH: B1 VH with I28A
VL: B1 VL with S52R
notes: Fab; also called SGRTLQS
- Kd [2]: 11 nM

B34: Ab1 Fab variant L2 T69H (Fab, V domains shown)
VH: B1 VH with I28A
VL: B1 VL with T53H
notes: Fab; also called SGSHLQS
- Kd [2]: 1.5 nM

More lines, now with the values ahead:

- binding result [1]: binds
B17: Ab1 Fab variant H3 F136L (Fab, V domains shown)
VH: B1 VH with I28A, F103L
VL: B1 VL
notes: Fab

- binding result [1]: binds
B18: Ab1 Fab variant H1 N40K (Fab, V domains shown)
VH: B1 VH with I28A, N33K
VL: B1 VL
notes: Fab

- binding result [1]: binds
B19: Ab1 Fab variant H1 F31L (Fab, V domains shown)
VH: B1 VH with I28A, F29L
VL: B1 VL
notes: Fab

- binding result [1]: binds
B20: Ab1 Fab variant H3 R108G (Fab, V domains shown)
VH: B1 VH with I28A, R98G
VL: B1 VL
notes: Fab

- binding result [1]: binds
B21: Ab1 Fab variant H2 S68Q (Fab, V domains shown)
VH: B1 VH with I28A, S58Q
VL: B1 VL
notes: Fab

- binding result [1]: binds
B22: Ab1 Fab variant H1 G27T (Fab, V domains shown)
VH: B1 VH with G26T, I28A
VL: B1 VL
notes: Fab

- binding result [1]: binds
B23: Ab1 Fab variant H3 A107V (Fab, V domains shown)
VH: B1 VH with I28A, A97V
VL: B1 VL
notes: Fab

- binding result [1]: binds
B24: Ab1 Fab variant H1 G27D (Fab, V domains shown)
VH: B1 VH with G26D, I28A
VL: B1 VL
notes: Fab

- binding result [1]: binds
B26: Ab1 Fab variant H2 K73C (Fab, V domains shown)
VH: B1 VH with I28A, K63C
VL: B1 VL
notes: Fab

- binding result [1]: binds
B27: Ab1 Fab variant H2 S68I (Fab, V domains shown)
VH: B1 VH with I28A, S58I
VL: B1 VL
notes: Fab

- binding result [1]: binds
B28: Ab1 Fab variant H2 P60T (Fab, V domains shown)
VH: B1 VH with I28A, P53T
VL: B1 VL
notes: Fab

- binding result [1]: binds
B29: Ab1 Fab variant H2 D65N (Fab, V domains shown)
VH: B1 VH with I28A, D55N
VL: B1 VL
notes: Fab

- binding result [1]: binds
B30: Ab1 Fab variant H3 Y138T (Fab, V domains shown)
VH: B1 VH with I28A, Y105T
VL: B1 VL
notes: Fab

- binding result [1]: binds
B31: Ab1 Fab variant H2 S68E (Fab, V domains shown)
VH: B1 VH with I28A, S58E
VL: B1 VL
notes: Fab

- binding result [1]: binds
B32: Ab1 Fab variant H2 D59S (Fab, V domains shown)
VH: B1 VH with I28A, D52S
VL: B1 VL
notes: Fab

- binding result [1]: binds
B33: Ab1 Fab variant H2 D65T (Fab, V domains shown)
VH: B1 VH with I28A, D55T
VL: B1 VL
notes: Fab

- binding result [1]: binds
B35: Ab1 Fab variant H2 G67M (Fab, V domains shown)
VH: B1 VH with I28A, G57M
VL: B1 VL
notes: Fab

- binding result [1]: binds
B36: Ab1 Fab variant H3 Y111L (Fab, V domains shown)
VH: B1 VH with I28A, Y101L
VL: B1 VL
notes: Fab

- binding result [1]: binds
B37: Ab1 Fab variant H2 K75A (Fab, V domains shown)
VH: B1 VH with I28A, K65A
VL: B1 VL
notes: Fab

- binding result [1]: binds
B38: Ab1 Fab variant H2 P60G (Fab, V domains shown)
VH: B1 VH with I28A, P53G
VL: B1 VL
notes: Fab

- binding result [1]: binds
B39: Ab1 Fab variant H1 F31W (Fab, V domains shown)
VH: B1 VH with I28A, F29W
VL: B1 VL
notes: Fab

- binding result [1]: binds
B40: Ab1 Fab variant H2 G67H (Fab, V domains shown)
VH: B1 VH with I28A, G57H
VL: B1 VL
notes: Fab

- binding result [1]: binds
B41: Ab1 Fab variant H3 A107T (Fab, V domains shown)
VH: B1 VH with I28A, A97T
VL: B1 VL
notes: Fab
